Measurements taken from the DeepSol protein solubility set.

Experiment: soluble on expression in E. coli; label from the status in PepcDB or PDB records

Row | Sequence | soluble on expression in E. coli
1 | AGVFNLEGFGPVSRAMGGTGAAFDIGPAAMMENPATLGLMGEGRHFSLGLDVVSTDIKVTNTATGETASSGNHGNNNGPYFAPQTAFVYRQGRYAFGAGIFAEGGLGTQYGGSSFLSRTSNGVDTGLDQFSRLLVLRVPFSAAYHVTDKLTVGASVDAVWTSLNLGTLLDVSQIGTLAGQGRVSGTLVPTLLGVPGLSGGYIDFSRNAPVGGGVQAWGIGGRLGLTYQVTPDTRIGAAYQAKTHVGDLTGQATLSAVSSVAGNIPLKGDVTVRNFQMPAQLTVGISHQFNDQLSVSADYQRVFWSSVMKDMNVGFVQSGSAANLDLSLPQNYRDISVFGIGAEYRYNAKWTFRGGFHYAQEAIPGNMLLAVVPATPTTSLTGGVSYAIGKNDVIDFALSVALRKTLDNASQPNTAVPISVTHSQVNAVIAYQKRFHHHHHH | soluble
2 | AGWQSYVDNLMCDGCCQEAAIVGYCDAKYVWAATAGGVFQSITPIEIDMIVGKDREGFFTNGLTLGAKKCSVIRDSLYVDGDCTMDIRTKSQGGEPTYNVAVGRAGRALVIVMGKEGVHGGTLNKKAYELALYLRRSDV | soluble
3 | AHHHHHHASAKWVCKICGYIYDEDAGDPDNGISPGTKFEELPDDWVCPICGAPKSEFEKLEDGSIEIRTHTALHVLKGAVVKVLGEGAKWTASVYVNGNHGRLTVKFNRKPTHEEIREIERLANEKIKENVPIQIYELSREEAEKIFGDEMYDLFPVPEHVRTLKVVVIEDWNVNACNKEHTKTTGEIGEIKIRKVRFRKSKELLEISFDVL | soluble
4 | AHHHHHHGSEAWRGRSQAVVDNLAPRVVDMLVPEGFKPTQEEQLSSYDVEKKELATVYMITLVSGSGEKEEEVEEETPTQTETQTPTETRTETKTPTETTTTTPTETKETPTQTTTTQPARTETQGGICGPGLIVLLAALGVLRRRS | not soluble
5 | AHHHHHHGSEKPRFKGHLKLLILKLLEENPLHGYGIMTRLEETFGIKVSPGAIYPILSSLRKSGLIEVAGEGKREKKLHKITEKGREYLRKHEDEVKEALEIANKLKEFSELGGKEVAQVLREVVENIDKLSEEQKAALAREFSNFVKRIKLILLGGEQYGGNNSGEPR | soluble
6 | AHHHHHHGSEYTIVDGEEYIEEIKKLDREISYSFVRFPISYEEYEERHEELFESLLSQGEHKFFVALNERSELLGHVWICITLDTVDYVKIAYIYDIEVVKWARGLGIGSALLRKAEEWAKERGAKKIVLRVEIDNPAVKWYEERGYKARALIMEKPI | soluble
7 | AHHHHHHGSGETLRIAFIYDVIYPWVKGGVERRLYEIAKRLAEKHEVHIYGYKHWDGKKIQEMNGIFYHGTIKPKKIYHGNRRAILPPIFHSINLLFLLKGQHLDIIDCQATPYFPCYASRVSNSNLVITWHEFWGNYWLKYLGRAGFFGKIIERGLFVLTDNHIAVSLKTKKDLYKAGLRKNIYVVPNGIDFEKIQEIKPSSYTSDIIFVGRLIKEKNVPLLLKALTIIKQDIPDVKAVVVGDGPEREYLEKLSFKLNLQDNVKFLGFLNRYEDVVALMKASKVFAFPSLREGFGIVVIEANASGLPVVTVEHEMNASKDLILEWKNGFIAKVNEKDFAEKILIALEKRKKMKKLSTEIARKYNWNEIVKKLERYYRWIA | soluble
8 | AHHHHHHGSGRDKKNTALLDIARDIGGDEAVEVVKALEKKGEATDEELAELTGVRVNTVRKILYALYDAKLATFRRVRDDETGWYYYYWRIDTKRLPEVIRTRKLQELEKLKQMLQEETSETYYHCGTPGHPKLTFDEAFEYGFQCPICGEILYEYDNSKIIEELKKRIEELEIELGLRSPPKEEKPKKATRRKKSRSGKKKK | not soluble
9 | AHHHHHHGSIILDNHFHVDPNHGLFLEAVKQFQRAGGTHLIVVYKTAHDYGFPGLKAEDFMKAMDFHIELVEKINRETQVKAYAVVGVHPAEFDYLARNKGLEFARNEVMKALEYAQKLCLEGKAVGIGEVGRPHYEVPQQIWEVSIEIMKYAMELAKDADCAVQLHTESFNEEKFRELGEYIREVGIKPYKVVKHFSPPLVNVAKEVGVFPSIIASKKNIEEAIKQGNRFLMETDYIDDKRRPGAVLGPKTVPKRTKEFLQRGIFTEEDVYKIHVENPKKVYGIEI | not soluble
10 | AHHHHHHGSISREQILEVLEKYDKEKITIGVIGSHSALDITDGAKEEGFPTLVVAQRGRHKTYEKYFKLRKTRDGLVKGFIDEVIVLEKFSQIIDIQEELRKRNVIFIPNRSFVVYTGIDRVENEFLVPMFGTRSLLRTEERSEEKSYYWLLEKAKLPYPEEVKPEEIDEVGLVIVKLPHAKKRLERGFFTAASYKEFKEKSEKLIRLGVITREDLEKARIERYIIGPVFNFDFFYSPIDEEIELLGIDWRFETSLDGHVRLPAAQQLTLPEWQFEPEYTVCGHASSTLRESLLEKVFDMAEKYVEATKKYYPPGIIGPFTLQTAVDKDLNFYIYDVAPRTGGGTNIHMAMGHPYGNSLWRKPMSTGRRIALEIKRAIELDELEKVVT | not soluble
11 | AHHHHHHGSKDDIVESVETLVRKGMIEEAIKIVENLQENFDKVIALCKIAELTRDESFLEDAIYFLKKIKDHDNKAIGYGEVAKVYALLGYEEESLELFEEAVKLTKNLNPVDKAITLTILANRLALAGFVDLSLEMFQNAFAEIIELNIELTKKTDLIIQLAEILEASGDALDSENALKFYEMAQDIYKNLKLGQREGIIEKKIELTRTLMHTSYPDIRKLAYEGRFIQALHEIEKRFGGNNVIPLLELTAWAYKTNVFERLKLKEITMEKLSASKLSDEEKFKVVQLLLEIDDTLKAYEIAITLESQELREKALVLIGLKMIDEGEVRFVEEKIFPLLSDEKREEFINFLKNLPIA | soluble
12 | AHHHHHHGSKKITISSLLLLLLISTNLNLAYDSQESGIKNIIILIGDGMGMSHVQITKLVYGHLNMEEFPIIGFELTESLSGEVTDSAAAGTAIATGVKTYNRMISVTNITGKVTNLTTLLEIAQVLGKSTGLVTTTRITHATPAVFASHVPDRDMEEEIARQLIAHRVNVLLGGGRKKFDENTLKMAKEQGYNIVFTKEELEKAEGEFILGLFADSHIPYVLDRKPEDVGLLEMTKKAISILEKNPNGFFLMIEGGRIDHAAHENDIASVVAETKEFDDVVGYVLEYAKKRGDTLVIVLADHETGGLGLGLTYGDAINEDVIRNINASVSKIASEIRATNDIKRVIKKYTGFELTEDEINYIEEAINLADEYALQNAIADIINKRVGVGFVSHKHTGAPVSLLAYGPGAENFAGFLHHVDTAKLIAKLMLFGKKDIPVTILGISGVKGDITGDFKVDEQDAYVTLMMLLGERVDTELERKVDMNNNGIIELGDVLLILQES | soluble
13 | AHHHHHHGSNLRNKLKLYVITDRRLKPEVESVREALEGGATAIQMRIKNAPTREMYEIGKTLRQLTREYDALFFVDDRVDVALAVDADGVQLGPEDMPIEVAKEIAPNLIIGASVYSLEEALEAEKKGADYLGAGSVFPTKTKEDARVIGLEGLRKIVESVKIPVVAIGGINKDNAREVLKTGVDGIAVISAVMGAEDVRKATEELRKIVEEVLG | soluble
14 | AHHHHHHGSNSKEFRKIALVGASKNPAKYGNIILKDLLSKGFEVLPVNPNYDEIEGLKCYRSVRELPKDVDVIVFVVPPKVGLQVAKEAVEAGFKKLWFQPGAESEEIRRFLEKAGVEYSFGRCIMVETSNKKIFLEV | soluble
15 | AHHHHHHGSPRWGRGRRRKMRMIEFIPYARHFYPALPRFGPPKPPIIMTYEEFEALRLVDYEGLTQEEAGKRMGVSRGTIWRALTSARKKVAQMLVEGRELIILPQGNEVIKSDEE | not soluble
16 | AHHHHHHGSRELVEIIKGIGIEGAKEVEEKVDRQFYALQYLFRHQDPEMFIKLVIANSLVSYQLTGRGEDWWWEFARYFSGREVDSIWKAYGEFLPKSKNNRRLIEAKLNRIRKVEGFLSTLTLKDLEGYYKNMKMLWKALIKIMGSREDSKTIVFTVKMFGYASRIAFSRFIPYPMEIPIPEDLRIKSVTSKLTQEKPTKFWMKIGQESGVPPLHIDSLIWPLLGNADLTPLDIELRNKLMKLTELLGL | soluble
17 | AHHHHHHGSYILQKNKGVIRVKDIAKMMRVKPPTVVEALKKLRDKGFVKYEEHEHILLTEKGLEVAKKTYSKHQLLTEFFINILGIPPEIAERDACQFEHYVSEVTVHRIREFISYIQQECPYALKQFLKKVREKDQAVAK | not soluble
18 | AHMAMIKMSPEEIRAKSQSYGQGSDQIRQILSDLTRAQGEIAANWEGQAFSRFEEQFQQLSPKVEKFAQLLEEIKQQLNSTADAVQEQDQQLSNNFGLQ | soluble
19 | AIAAAPIESLLNEICESEDPIEELKSLRTAVLATPVSGLRPAVSGARLEIIFSLLNTNDKEQIEVCVEILSRVLQALEPVQLAQNYRTALQSGLNHPDDSVKVLTLTQIGRVAGHTEGVTQMLNNVEILHDVIQCISVERIAVAKEAIAALSKLSNTKAGLDALFRSDLLNKLKDVMLTSDIIRYRVYELIVEVSTVSPVSLGYCANSGLISQMLEELTGDDVLVRATAIEMVTNLAQSQHGRQYLAQQGIMDKISSVQKIFGAHNYLKLKTYLNEGSYYVTAVSAVTTEGAD | soluble
20 | AIAADGQMPFSCHYPSRLRRDPFRDSPLSSRLLDDGFGMDPFPDDLTASWPDWALPRLSSAWPGTLRSGMVPRGPTATARFGVPAEGRTPPPFPGEPWKVCVNVHSFKPEELMVKTKDGYVEVSGKHEEKQQEGGIVSKNFTKKIQLPAEVDPVTVFASLSPEGLLIIEAPQVPPYSTFGESSFNNELPQDSQEVTCT | soluble
21 | AIADELNSPLGERAQGASLAHVVWSDPQWLERYPLTFENVLTYFSRSPFYDPTCNNELVRMQMHPELQGEMLYYTQREEELLLGMQGVEYVPLCSSDAHELFIIRKQVRRSADEVHVTNLYYILYGQVYEAPAFSTVLLVRLRQSADFLVRSLGLLRQWLSKKEYGEPGATGHGHEDTLLLQLLRKAQQRNRQL | soluble
22 | AIADTRSLQDFQDLCTFDVFKSFGHYYGYGVDQQALIDQEFKRIKGVTYLDHAGTTLFPESLIKGFHDDIPRNVYGNPHSHNSSSRLTHDTVESVRYKILAHFNTSPEDYSVIFTSGCTAALKLVADTFPWKPMSNKEPGSQFCYLTDNHTSVVGIRGATALQGVGTISVSPREVETRARNKTQTNGEEECSTPHLFCYPAQSNFSGRKYSLSYVKGIQSQQLYPACEHHGQWFVLLDAACFVSCSPLDLSQYPADFVPISFYKMFGFPTGLGALLVRNEAAEVLRKTYFGGGTAAAYLVEENYFIPKPNLASR | soluble
23 | AIALPADGIVCFPGQTWEKVLSKVKKAVVFMDDRCSESLHWNGGAALLFEAGARNIKQFSSFEAGAQNEPKAVFVVSTVLKGRTADIIKDIISLSHFQYCVVFTTVPHSIHLLANNVNADLEGNPVFEQFEEKLCEWMGDMNYTAEVMHAPVVFAPLTEHLHLLPAFSNLFPLLDVDLESINEKRPEKKRFGSLMDMDVHSLPPGLQIQIKTLALTLNGLFEFISTREESFSVGPMSRLIATELANLPQAKNRRKTAPNKASVVFVDRTLDLTGAVGHHGDNLAEKILSVLPQLPGHVTDVQVDMLELTHLKPTTDTKGILAPGCLAQNQSATAKLLWETMLVAKQKEAVIEVRRQLVEAASKENLPIKMSLGRVTAEQLCSYVQLFRDSWGALESHSGVLQLGLAAAQALRHPALQRWDACLAFERLLLQALGDSDLAGVLKQLLPLIKSSESGTGSDLSMDDLLVLLVYVYSVAKEACSGGSEEEKQVEKVEQELIGALTLRLTRETTLSPLVQEVTGVSCPEELTMECAHSVLESMFGTLRGVARARDHLKNFSSVFTPGDGAHQDQHRYILILMIQDQHQ | soluble
24 | AIAPLGEEKNGKCDGSIYVNNPHLDSMTDDILYHFNLGTSTHDLPKMFGDVKFVCVGGSPWRMKSFTEYIAKELGLVDPNAEYPNICAGTDRYAMYKVGPVLSVSHGMGIPSISIMLHELIKLLYHARCTDVTVVRIGTSGGIGLKPGTVVVTKQSVDSLFQPHLEQTILGKPVVRSTELDKELAEELLQCGKELGEFEIIIGNTMCTLDFYEGSNVFEDKCTRIAAYSFKIHVL | soluble
